Assay results published in IntAct's records for PubMed 23624404.

B1: DNA repair protein RAD51 (Saccharomyces cerevisiae), P25454 (parent)
chain: MSQVQEQHISESQLQYGNGSLMSTVPADLSQSVVDGNGNGSSEDIEATNGSGDGGGLQEQAEAQGEMEDEAYDEAALGSFVPIEKLQVNGITMADVKKLRESGLHTAEAVAYAPRKDLLEIKGISEAKADKLLNEAARLVPMGFVTAADFHMRRSELICLTTGSKNLDTLLGGGVETGSITELFGEFRTGKSQLCHTLAVTCQIPLDIGGGEGKCLYIDTEGTFRPVRLVSIAQRFGLDPDDALNNVAYARAYNADHQLRLLDAAAQMMSESRFSLIVVDSVMALYRTDFSGRGELSARQMHLAKFMRALQRLADQFGVAVVVTNQVVAQVDGGMAFNPDPKKPIGGNIMAHSSTTRLGFKKGKGCQRLCKVVDSPCLPEAECVFAIYEDGVGDPREEDE

Variants of: B1
Settings: with smt3_yeast SMT3, Q12306
Sequence of smt3_yeast SMT3, Q12306 (Q12306 whole entry): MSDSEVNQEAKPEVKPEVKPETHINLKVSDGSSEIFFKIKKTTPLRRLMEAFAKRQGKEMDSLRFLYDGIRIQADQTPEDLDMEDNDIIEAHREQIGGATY

Row | Variant | effect of a mutation on the interaction
1 | MSQVQEQHISESQLQYGNGSLMSTVPADLSQSVVDGNGNGSSEDIEATNGSGDGGGLQEQAEAQGEMEDEAYDEAALGSFVPIEKLQVNGITMADVKKLRESGLHTAEAVAYAPRKDLLEIKGISEAKADKLLNEAARLVPMGFVTAADFHMRRSELICLTTGSKNLDTLLGGGVETGSITELFGEFRTGKSQLCHTLAVTCQIPLDIGGGEGKCLYIDTEGTFRPVRLVSIAQRFGLDPDDALNNVAYARAYNADHQLRLLDAAAQMMSESRFSLIVVDSVMALYRTDFSGRGELSARQMHLAKFMRALQRLADQFGVAAAVTNQVVAQVDGGMAFNPDPKKPIGGNIMAHSSTTRLGFKKGKGCQRLCKVVDSPCLPEAECVFAIYEDGVGDPREEDE [V321A;V322A] | disrupting interaction strength

Variants of: B1
Settings: with rad52_yeast RAD52, P06778

Row | Variant | effect of a mutation on the interaction
2 | MSQVQEQHISESQLQYGNGSLMSTVPADLSQSVVDGNGNGSSEDIEATNGSGDGGGLQEQAEAQGEMEDEAYDEAALGSFVPIEKLQVNGITMADVKKLRESGLHTAEAVAYAPRKDLLEIKGISEAKADKLLNEAARLVPMGFVTAADFHMRRSELICLTTGSKNLDTLLGGGVETGSITELFGEFRTGKSQLCHTLAVTCQIPLDIGGGEGKCLYIDTEGTFRPVRLVSIAQRFGLDPDDALNNVAYARAYNADHQLRLLDAAAQMMSESRFSLIVVDSVMALYRTDFSGRGELSARQMHLAKFMRALQRLADQFGVAAAVTNQVVAQVDGGMAFNPDPKKPIGGNIMAHSSTTRLGFKKGKGCQRLCKVVDSPCLPEAECVFAIYEDGVGDPREEDE [V321A;V322A] | decreasing interaction strength
